Test results reported in article doi:10.1101/2020.01.12.903617, “The peptide sensor motif stabilizes the outward-facing conformation of TmrAB” (bioRxiv, 2020).
No end group written: not given here. fluorescein = fluorescein label attached to the Cys side chain

Columns and labels:
TmrAB D117A^TmrB = molecular target: T1, TmrAB D117A^TmrB (Thermus thermophilus, UniProt Q72J05 1-600; Q72J04 1-578, D117A); assay: fluorescence polarisation; 1.7 uM TmrAB with 50 nM RRY(C^Fluorescein)KSTEL in SEC buffer (20 mM HEPES, 150 mM NaCl, pH 7, 0.05% ß-DDM), 15 minutes on ice, in the absence or presence of 5 mM ATP and 10 mM MgCl2; read at 25°C (the results say 4°C); signal normalized to WT without ATP; settings: both partners purified
T1 construct: TmrA, Thermus thermophilus, the chain of TmrAB with the canonical Walker B motif; TmrB, Thermus thermophilus, the chain of TmrAB with the non-canonical Walker B motif
T1 sequence 1: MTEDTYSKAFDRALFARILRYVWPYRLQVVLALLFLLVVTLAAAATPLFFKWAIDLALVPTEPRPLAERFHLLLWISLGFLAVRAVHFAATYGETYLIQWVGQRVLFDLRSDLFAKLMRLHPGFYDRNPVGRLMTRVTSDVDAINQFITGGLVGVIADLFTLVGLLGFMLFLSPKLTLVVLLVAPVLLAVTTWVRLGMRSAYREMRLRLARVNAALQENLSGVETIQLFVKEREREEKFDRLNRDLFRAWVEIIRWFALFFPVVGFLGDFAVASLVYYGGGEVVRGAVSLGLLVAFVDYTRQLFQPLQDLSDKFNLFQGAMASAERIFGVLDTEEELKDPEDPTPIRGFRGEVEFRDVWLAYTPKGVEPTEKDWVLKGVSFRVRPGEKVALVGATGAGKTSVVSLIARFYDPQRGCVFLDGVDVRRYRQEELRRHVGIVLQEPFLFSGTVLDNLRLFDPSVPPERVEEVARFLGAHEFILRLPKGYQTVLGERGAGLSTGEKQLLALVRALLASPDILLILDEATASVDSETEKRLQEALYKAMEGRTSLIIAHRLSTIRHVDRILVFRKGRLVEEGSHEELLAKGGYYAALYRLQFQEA
T1 sequence 2: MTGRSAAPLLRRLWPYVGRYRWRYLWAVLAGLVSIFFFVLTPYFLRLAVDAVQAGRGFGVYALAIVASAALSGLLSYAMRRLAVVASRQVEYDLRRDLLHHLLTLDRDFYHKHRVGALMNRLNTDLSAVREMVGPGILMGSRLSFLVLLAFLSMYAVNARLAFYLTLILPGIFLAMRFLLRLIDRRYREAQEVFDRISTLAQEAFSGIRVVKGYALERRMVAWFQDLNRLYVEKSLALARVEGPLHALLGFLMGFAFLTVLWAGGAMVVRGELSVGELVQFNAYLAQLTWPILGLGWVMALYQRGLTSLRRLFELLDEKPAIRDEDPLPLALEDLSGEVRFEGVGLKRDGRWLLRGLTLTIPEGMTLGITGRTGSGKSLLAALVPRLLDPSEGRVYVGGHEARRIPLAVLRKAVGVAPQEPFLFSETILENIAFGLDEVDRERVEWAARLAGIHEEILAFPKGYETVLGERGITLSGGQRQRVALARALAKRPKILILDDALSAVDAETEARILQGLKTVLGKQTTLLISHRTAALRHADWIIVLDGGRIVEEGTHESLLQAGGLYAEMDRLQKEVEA

TmrAB G116A^TmrB = molecular target: T2, TmrAB G116A^TmrB (Thermus thermophilus, UniProt Q72J05 1-600; Q72J04 1-578, G116A); assay: as above; settings: both partners purified
T2 construct: TmrA, Thermus thermophilus, the chain of TmrAB with the canonical Walker B motif; TmrB, Thermus thermophilus, the chain of TmrAB with the non-canonical Walker B motif
T2 sequence 1: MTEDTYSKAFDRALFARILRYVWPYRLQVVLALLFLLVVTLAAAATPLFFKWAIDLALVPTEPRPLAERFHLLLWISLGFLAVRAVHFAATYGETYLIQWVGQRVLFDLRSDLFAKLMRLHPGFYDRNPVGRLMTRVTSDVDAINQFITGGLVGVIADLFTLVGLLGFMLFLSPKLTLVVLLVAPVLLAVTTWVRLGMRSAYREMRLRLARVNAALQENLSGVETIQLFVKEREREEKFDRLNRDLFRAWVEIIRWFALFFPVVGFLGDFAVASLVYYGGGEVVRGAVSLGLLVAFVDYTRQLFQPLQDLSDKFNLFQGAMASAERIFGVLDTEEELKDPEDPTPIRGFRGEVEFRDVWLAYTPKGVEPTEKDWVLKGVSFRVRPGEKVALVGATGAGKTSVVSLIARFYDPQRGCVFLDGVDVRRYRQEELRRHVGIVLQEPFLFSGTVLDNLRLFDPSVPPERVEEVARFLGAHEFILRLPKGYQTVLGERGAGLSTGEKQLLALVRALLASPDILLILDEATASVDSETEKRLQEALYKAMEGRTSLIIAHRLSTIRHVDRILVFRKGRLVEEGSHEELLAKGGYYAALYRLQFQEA
T2 sequence 2: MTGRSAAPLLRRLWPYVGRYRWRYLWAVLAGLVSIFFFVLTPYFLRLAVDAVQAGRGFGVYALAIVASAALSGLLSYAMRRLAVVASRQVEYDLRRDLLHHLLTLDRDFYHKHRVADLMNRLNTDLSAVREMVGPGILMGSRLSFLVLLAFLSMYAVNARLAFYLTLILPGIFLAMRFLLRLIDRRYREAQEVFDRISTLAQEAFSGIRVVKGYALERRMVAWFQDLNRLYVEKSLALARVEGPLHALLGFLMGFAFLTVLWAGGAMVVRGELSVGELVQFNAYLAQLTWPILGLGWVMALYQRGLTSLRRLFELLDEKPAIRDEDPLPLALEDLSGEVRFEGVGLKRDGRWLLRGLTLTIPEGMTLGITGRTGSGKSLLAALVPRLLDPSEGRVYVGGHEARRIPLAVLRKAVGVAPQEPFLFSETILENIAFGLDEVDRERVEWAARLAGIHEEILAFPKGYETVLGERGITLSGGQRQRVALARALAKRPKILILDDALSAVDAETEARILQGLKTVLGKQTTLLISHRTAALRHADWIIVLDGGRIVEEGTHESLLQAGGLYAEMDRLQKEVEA

B1: fluorescent transport substrate peptide RRY(C^Fluorescein)KSTEL (peptide)
peptide: RRYC(fluorescein)KSTEL
notes: fluorescein-labelled transport substrate peptide of TmrAB; also called fluorescently-labeled peptide substrate; peptide substrate; source: bought: Genscript
binding result (TmrAB D117A^TmrB): binds | binding result (TmrAB G116A^TmrB): binds
